Key:
[1] = molecular target: Ganab (glucosidase II alpha-subunit), endogenous, mouse kidney (mouse) (UniProt Q8BHN3); experiment: anti-HA immunoprecipitation from DTSSP-crosslinked crude mitochondria (contain MAMs), LC-MS/MS proteomics
[2] = molecular target: Nicotinamide Nucleotide Transhydrogenase (NNT), endogenous, mouse kidney (mouse) (UniProt Q61941); experiment: anti-HA immunoprecipitation from DTSSP-crosslinked crude mitochondria, LC-MS/MS proteomics, n=3 per group
Nicotinamide Nucleotide Transhydrogenase (NNT), endogenous, mouse kidney (mouse), sequence (Q61941 44-1086 limits assumed): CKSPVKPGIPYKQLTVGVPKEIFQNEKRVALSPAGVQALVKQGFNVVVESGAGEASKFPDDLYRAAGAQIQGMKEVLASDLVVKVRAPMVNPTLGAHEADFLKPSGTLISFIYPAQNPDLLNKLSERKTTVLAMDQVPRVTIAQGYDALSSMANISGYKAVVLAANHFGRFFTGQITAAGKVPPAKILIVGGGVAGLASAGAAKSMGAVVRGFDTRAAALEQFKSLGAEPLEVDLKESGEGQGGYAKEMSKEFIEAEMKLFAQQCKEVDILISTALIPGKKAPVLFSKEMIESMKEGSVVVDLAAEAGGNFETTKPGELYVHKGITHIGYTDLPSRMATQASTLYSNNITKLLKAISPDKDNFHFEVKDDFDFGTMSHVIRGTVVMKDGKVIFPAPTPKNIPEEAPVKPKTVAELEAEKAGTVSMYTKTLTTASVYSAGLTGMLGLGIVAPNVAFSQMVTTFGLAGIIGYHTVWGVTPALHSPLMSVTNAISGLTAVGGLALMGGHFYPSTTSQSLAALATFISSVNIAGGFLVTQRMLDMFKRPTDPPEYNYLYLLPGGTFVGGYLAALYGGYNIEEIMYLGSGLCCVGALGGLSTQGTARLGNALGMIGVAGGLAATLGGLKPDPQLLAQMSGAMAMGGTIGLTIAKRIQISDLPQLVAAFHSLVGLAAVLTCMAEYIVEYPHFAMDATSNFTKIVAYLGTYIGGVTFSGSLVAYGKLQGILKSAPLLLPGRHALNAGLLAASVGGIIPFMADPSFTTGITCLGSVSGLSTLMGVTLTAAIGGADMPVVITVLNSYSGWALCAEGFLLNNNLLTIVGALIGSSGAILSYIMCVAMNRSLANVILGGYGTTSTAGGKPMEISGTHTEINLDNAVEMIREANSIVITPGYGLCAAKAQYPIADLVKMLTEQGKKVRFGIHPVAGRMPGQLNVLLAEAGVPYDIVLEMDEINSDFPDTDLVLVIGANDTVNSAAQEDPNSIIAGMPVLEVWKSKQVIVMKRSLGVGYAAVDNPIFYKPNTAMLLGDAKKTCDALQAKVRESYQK

3FLAG-PC1-3HA (PC1 tagged with a 3xFLAG epitope at its N-terminus and a 3xHA sequence at its C-terminus, Pkd1F/H-BAC mouse) and its HA-tagged fragments (150-kDa CTF; PC1-CTT-3HA fragments of 17-37 kDa, sequence (O08852 3041-4293): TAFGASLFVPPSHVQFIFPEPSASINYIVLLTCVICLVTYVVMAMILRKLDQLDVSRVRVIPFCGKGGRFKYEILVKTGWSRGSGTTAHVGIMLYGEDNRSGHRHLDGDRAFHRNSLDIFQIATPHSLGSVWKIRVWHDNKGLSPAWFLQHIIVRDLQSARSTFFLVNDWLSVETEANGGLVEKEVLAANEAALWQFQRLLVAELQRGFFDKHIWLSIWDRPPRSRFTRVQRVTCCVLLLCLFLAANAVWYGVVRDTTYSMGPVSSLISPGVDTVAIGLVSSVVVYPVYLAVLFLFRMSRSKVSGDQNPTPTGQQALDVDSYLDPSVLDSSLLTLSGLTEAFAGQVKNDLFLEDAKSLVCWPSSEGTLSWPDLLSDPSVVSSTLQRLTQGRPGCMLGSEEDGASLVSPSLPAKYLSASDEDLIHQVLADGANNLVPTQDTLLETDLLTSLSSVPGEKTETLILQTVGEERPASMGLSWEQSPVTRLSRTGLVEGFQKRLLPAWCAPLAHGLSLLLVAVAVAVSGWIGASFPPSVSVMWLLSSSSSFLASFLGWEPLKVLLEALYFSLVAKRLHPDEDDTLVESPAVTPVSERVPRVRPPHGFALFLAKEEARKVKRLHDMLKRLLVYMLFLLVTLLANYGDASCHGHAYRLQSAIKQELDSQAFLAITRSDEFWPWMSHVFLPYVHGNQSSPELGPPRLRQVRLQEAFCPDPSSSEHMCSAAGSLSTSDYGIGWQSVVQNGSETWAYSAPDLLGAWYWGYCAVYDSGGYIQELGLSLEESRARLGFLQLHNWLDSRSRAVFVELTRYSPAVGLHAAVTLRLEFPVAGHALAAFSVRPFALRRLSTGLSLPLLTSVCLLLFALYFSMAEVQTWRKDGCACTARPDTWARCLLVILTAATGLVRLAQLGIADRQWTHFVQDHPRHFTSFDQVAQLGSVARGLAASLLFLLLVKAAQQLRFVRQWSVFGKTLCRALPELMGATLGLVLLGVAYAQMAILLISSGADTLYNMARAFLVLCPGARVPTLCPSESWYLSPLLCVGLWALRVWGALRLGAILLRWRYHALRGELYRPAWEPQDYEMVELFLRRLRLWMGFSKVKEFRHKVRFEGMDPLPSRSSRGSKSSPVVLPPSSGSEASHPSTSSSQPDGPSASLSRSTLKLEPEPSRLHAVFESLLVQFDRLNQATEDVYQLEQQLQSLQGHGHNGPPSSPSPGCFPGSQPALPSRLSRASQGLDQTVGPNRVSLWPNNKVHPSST
Ganab (glucosidase II alpha-subunit), endogenous, mouse kidney (mouse), sequence (Q8BHN3 33-944 limits assumed): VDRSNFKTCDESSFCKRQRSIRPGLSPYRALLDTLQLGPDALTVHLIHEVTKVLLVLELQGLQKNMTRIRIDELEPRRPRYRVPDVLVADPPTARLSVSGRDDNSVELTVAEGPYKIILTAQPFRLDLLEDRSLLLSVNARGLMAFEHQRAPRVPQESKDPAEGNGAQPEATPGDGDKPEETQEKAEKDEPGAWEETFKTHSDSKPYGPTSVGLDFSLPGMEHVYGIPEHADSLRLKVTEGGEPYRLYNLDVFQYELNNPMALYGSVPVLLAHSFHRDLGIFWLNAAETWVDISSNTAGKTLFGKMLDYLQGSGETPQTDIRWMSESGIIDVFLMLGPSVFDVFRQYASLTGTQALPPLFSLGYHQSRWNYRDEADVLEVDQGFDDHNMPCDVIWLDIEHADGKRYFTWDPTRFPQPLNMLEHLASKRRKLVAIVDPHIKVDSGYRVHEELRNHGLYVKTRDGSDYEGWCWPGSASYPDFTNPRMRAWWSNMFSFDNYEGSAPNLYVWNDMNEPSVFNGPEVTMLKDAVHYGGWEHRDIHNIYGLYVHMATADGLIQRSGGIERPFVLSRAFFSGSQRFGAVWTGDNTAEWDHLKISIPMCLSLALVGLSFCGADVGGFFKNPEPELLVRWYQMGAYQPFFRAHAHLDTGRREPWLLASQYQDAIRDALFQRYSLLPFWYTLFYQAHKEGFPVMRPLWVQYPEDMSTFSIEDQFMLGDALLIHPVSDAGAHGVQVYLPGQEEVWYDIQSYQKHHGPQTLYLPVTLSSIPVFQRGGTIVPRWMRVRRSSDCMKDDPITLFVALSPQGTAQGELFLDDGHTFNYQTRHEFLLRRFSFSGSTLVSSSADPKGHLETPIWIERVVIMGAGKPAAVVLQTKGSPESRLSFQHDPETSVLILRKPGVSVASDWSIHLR

What does the source list for “3FLAG-PC1-3HA (PC1 tagged with a 3xFLAG epitope at its N-terminus and a 3xHA sequence at its C-terminus, Pkd1F/H-BAC mouse) and its HA-tagged fragments (150-kDa CTF; PC1-CTT-3HA fragments of 17-37 kDa) (from UniProt O08852 3041-4293)”?
fold enrichment in immunoprecipitates against WT [1]: 4 fold; fold amount of NNT co-immunoprecipitated against control WT immunoprecipitates [2]: > 16 fold

— US20240400627A1
